Paper PMC9868005, “Structural and functional characterization of TraI from pKM101 reveals basis for DNA processing”

Tests used:
[1] = target: T1, TraI trans-esterase domain (TraI-TE) (Escherichia coli? (plasmid pKM101), UniProt D9Z5Q2 1-299); assay: EMSA; over half bound at 200 nM; EMSA: 50 nM FITC-DNA, 0-1600 nM protein, 25 mM Hepes-NaOH pH 7.0, 300 mM NaCl, room temperature 15 min; 5% PAGE, 0.75x TBE, 4 C; conditions: protein: recombinant; tags: 10xHis with 3C site, cleaved off; label: 5' FITC; hairpin
T1 sequence: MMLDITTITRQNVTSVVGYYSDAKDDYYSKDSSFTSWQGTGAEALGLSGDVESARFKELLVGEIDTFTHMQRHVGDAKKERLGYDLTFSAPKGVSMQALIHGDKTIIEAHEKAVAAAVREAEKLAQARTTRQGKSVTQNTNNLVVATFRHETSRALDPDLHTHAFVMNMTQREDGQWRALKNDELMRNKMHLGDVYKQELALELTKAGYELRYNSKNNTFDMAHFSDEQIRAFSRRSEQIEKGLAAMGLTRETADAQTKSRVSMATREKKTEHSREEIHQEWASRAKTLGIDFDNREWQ

[2] = target: T2, TraI full-length (Escherichia coli? (plasmid pKM101), UniProt D9Z5Q2 3-1079); assay: EMSA; complete shift at 200 nM and above; high shift from 50 nM; EMSA: 50 nM FITC-DNA, 0-1600 nM protein, 25 mM Hepes-NaOH pH 7.0, 300 mM NaCl, room temperature 15 min; 5% PAGE, 0.75x TBE, 4 C; conditions: protein: recombinant; tags: 10xHis with 3C site, cleaved off; label: 5' FITC; hairpin
T2 sequence: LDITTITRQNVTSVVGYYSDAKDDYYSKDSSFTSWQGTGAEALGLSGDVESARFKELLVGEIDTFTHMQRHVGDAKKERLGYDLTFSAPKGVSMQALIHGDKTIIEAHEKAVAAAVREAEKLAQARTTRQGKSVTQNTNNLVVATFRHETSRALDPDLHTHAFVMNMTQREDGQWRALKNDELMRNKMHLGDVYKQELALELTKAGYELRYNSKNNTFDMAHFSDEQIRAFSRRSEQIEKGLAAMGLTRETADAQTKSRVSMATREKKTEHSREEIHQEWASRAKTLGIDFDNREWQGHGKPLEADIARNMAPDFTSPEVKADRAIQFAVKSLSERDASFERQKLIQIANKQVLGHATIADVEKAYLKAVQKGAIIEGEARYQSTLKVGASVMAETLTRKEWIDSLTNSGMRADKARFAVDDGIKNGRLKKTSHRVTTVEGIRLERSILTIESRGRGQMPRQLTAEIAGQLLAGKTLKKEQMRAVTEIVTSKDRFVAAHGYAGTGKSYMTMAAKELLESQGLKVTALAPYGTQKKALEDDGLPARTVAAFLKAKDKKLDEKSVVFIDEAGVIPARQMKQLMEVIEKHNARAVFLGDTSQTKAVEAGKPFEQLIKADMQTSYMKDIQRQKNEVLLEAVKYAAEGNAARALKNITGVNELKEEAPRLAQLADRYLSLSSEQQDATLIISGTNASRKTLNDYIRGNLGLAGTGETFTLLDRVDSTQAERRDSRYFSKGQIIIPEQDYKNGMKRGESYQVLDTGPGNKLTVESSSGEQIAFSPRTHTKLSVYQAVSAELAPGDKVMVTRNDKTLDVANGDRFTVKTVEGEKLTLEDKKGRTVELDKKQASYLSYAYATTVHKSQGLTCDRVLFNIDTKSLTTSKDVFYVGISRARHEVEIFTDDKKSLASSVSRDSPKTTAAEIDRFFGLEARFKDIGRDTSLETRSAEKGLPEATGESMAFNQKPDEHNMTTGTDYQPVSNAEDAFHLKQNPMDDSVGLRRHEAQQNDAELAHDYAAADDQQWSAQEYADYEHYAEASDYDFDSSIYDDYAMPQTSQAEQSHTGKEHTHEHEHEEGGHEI

[3] = target: T1, TraI trans-esterase domain (TraI-TE); assay: EMSA; interaction only seen above 800 nM; EMSA: 50 nM FITC-DNA, 0-1600 nM protein, 25 mM Hepes-NaOH pH 7.0, 300 mM NaCl, room temperature 15 min; 5% PAGE, 0.75x TBE, 4 C; conditions: protein: recombinant; tags: 10xHis with 3C site, cleaved off; label: 5' FITC
[4] = target: T1, TraI trans-esterase domain (TraI-TE); assay: EMSA; apparent Kd, half-shift point; EMSA: 50 nM FITC-DNA, 0-1600 nM protein, 25 mM Hepes-NaOH pH 7.0, 300 mM NaCl, room temperature 15 min; 5% PAGE, 0.75x TBE, 4 C; conditions: protein: recombinant; tags: 10xHis with 3C site, cleaved off; label: 5' FITC; hairpin
[5] = target: T1, TraI trans-esterase domain (TraI-TE); assay: X-ray crystallography 2.1 A; divalent cation modeled as Mn2+ (identity uncertain); 10 of 11 bases modeled; EMSA: 50 nM FITC-DNA, 0-1600 nM protein, 25 mM Hepes-NaOH pH 7.0, 300 mM NaCl, room temperature 15 min; 5% PAGE, 0.75x TBE, 4 C; conditions: protein: recombinant; tags: 10xHis with 3C site, cleaved off; U-turn in complex

B1: F-oriT35 (structured_DNA)
DNA: TGTGATAGCGTGATTTATCGCGCTGCGTTAGGTGT
apparent K (half saturation) [1]: < 200 nM
apparent K (half saturation) [2]: < 200 nM

B2: F-Random57 (ssDNA)
DNA: TCCGCCATGCAGACGAGACCAGTCGGAGATTACCGAGCATTCTATCAGGTCGGCGAC
apparent K (half saturation) [3]: > 800 nM

B3: F-oriT57 (structured_DNA)
DNA: TGTGATAGCGTGATTTATCGCGCTGCGTTAGGTGTATAGCAGGTTAAGGGATAAAAA
Kd [4]: < 200 nM
apparent K (half saturation) [2]: < 200 nM

B4: oriT11 (ssDNA)
DNA: GCGTTAGGTGT
binding result [5]: binds
